In the supplement of paper PMC11246515:
± gives the standard deviation of the averaged measurements.

Test: total protein half-life in vivo (active degradation + dilution); higher = more stable protein
[1] = E. coli NCM3722 delta-clpP delta-lon delta-hslV, growth: N-lim chemostat, doubling time 6 h
[2] = E. coli NCM3722 delta-clpP, growth: N-lim chemostat, doubling time 6 h
[3] = E. coli NCM3722 delta-hslV, growth: N-lim chemostat, doubling time 6 h
[4] = E. coli NCM3722 delta-lon, growth: N-lim chemostat, doubling time 6 h
[5] = E. coli NCM3722 delta-smpB, growth: N-lim chemostat, doubling time 6 h
[6] = wild type E. coli NCM3722, growth: C-lim chemostat, doubling time 3 h
[7] = wild type E. coli NCM3722, growth: C-lim chemostat, doubling time 6 h
[8] = wild type E. coli NCM3722, growth: C-lim chemostat, doubling time 12 h
[9] = wild type E. coli NCM3722, growth: N-lim chemostat, doubling time 6 h
[10] = wild type E. coli NCM3722, growth: N-lim chemostat, doubling time 12 h
[11] = wild type E. coli NCM3722, growth: P-lim chemostat, doubling time 6 h
[12] = wild type E. coli NCM3722, growth: P-lim chemostat, doubling time 12 h

Sequence | total protein half-life in vivo [1] [h] | total protein half-life in vivo [2] [h] | total protein half-life in vivo [3] [h] | total protein half-life in vivo [4] [h] | total protein half-life in vivo [5] [h] | total protein half-life in vivo [6] [h] | total protein half-life in vivo [7] [h] | total protein half-life in vivo [8] [h] | total protein half-life in vivo [9] [h] | total protein half-life in vivo [10] [h] | total protein half-life in vivo [11] [h] | total protein half-life in vivo [12] [h]
MTNITKRSLVAAGVLAALMAGNVALAADVPAGVTLAEKQTLVRNNGSEVQSLDPHKIEGVPESNISRDLFEGLLVSDLDGHPAPGVAESWDNKDAKVWTFHLRKDAKWSDGTPVTAQDFVYSWQRSVDPNTASPYASYLQYGHIAGIDEILEGKKPITDLGVKAIDDHTLEVTLSEPVPYFYKLLVHPSTSPVPKAAIEKFGEKWTQPGNIVTNGAYTLKDWVVNERIVLERSPTYWNNAKTVINQVTYLPIASEVTDVNRYRSGEIDMTNNSMPIELFQKLKKEIPDEVHVDPYLCTYYYEINNQKPPFNDVRVRTALKLGMDRDIIVNKVKAQGNMPAYGYTPPYTDGAKLTQPEWFGWSQEKRNEEAKKLLAEAGYTADKPLTINLLYNTSDLHKKLAIAASSLWKKNIGVNVKLVNQEWKTFLDTRHQGTFDVARAGWCADYNEPTSFLNTMLSNSSMNTAHYKSPAFDSIMAETLKVTDEAQRTALYTKAEQQLDKDSAIVPVYYYVNARLVKPWVGGYTGKDPLDNTYTRNMYIVKH | 5.05 ± 0.41 | 5.96 ± 0.98 | 6.62 ± 0.85 | 6.25 ± 0.66 | 6.01 ± 0.075 | 3.13 ± 0.1 | 6.215 ± 0.047 | 12.7 ± 1.9 | 6.22 ± 0.13 | 12 ± 0.33 | 6.03 ± 0.071 | 12.3 ± 0.35
MSEALKILNNIRTLRAQARECTLETLEEMLEKLEVVVNERREEESAAAAEVEERTRKLQQYREMLIADGIDPNELLNSLAAVKSGTKAKRAQRPAKYSYVDENGETKTWTGQGRTPAVIKKAMDEQGKSLDDFLIKQ [P0ACF8] | – | – | 6.19 ± 0.062 | 7.64 ± 0.48 | 5.87 ± 1.2 | 2.9 ± 0.29 | 6.22 ± 0.29 | 9.37 ± 0.21 | 5.27 ± 0.45 | 11.6 ± 2.7 | 5.16 ± 0.77 | 11.7 ± 0.41
MSEQNNTEMTFQIQRIYTKDISFEAPNAPHVFQKDWQPEVKLDLDTASSQLADDVYEVVLRVTVTASLGEETAFLCEVQQGGIFSIAGIEGTQMAHCLGAYCPNILFPYARECITSMVSRGTFPQLNLAPVNFDALFMNYLQQQAGEGTEEHQDA [P0AG86] | 5.809 ± 0.028 | 5.336 ± 0.019 | – | 6.08 ± 0.59 | 5.16 ± 0.59 | 2.91 ± 0.79 | 7.35 ± 0.53 | 11.2 ± 1.2 | 5.17 ± 0.34 | 9.15 | – | 13.8 ± 2.5
MKHLHRFFSSDASGGIILIIAAILAMIMANSGATSGWYHDFLETPVQLRVGSLEINKNMLLWINDALMAVFFLLVGLEVKRELMQGSLASLRQAAFPVIAAIGGMIVPALLYLAFNYADPITREGWAIPAATDIAFALGVLALLGSRVPLALKIFLMALAIIDDLGAIIIIALFYTNDLSMASLGVAAVAIAVLAVLNLCGARRTGVYILVGVVLWTAVLKSGVHATLAGVIVGFFIPLKEKHGRSPAKRLEHVLHPWVAYLILPLFAFANAGVSLQGVTLDGLTSILPLGIIAGLLIGKPLGISLFCWLALRLKLAHLPEGTTYQQIMVVGILCGIGFTMSIFIASLAFGSVDPELINWAKLGILVGSISSAVIGYSWLRVRLRPSV | 6.65 | 6.24 ± 0.42 | 5.55 ± 0.066 | 5.75 ± 0.5 | 6.42 ± 0.43 | 3.69 | 5.22 ± 1.9 | 12 | 5.7 ± 0.59 | 11.7 ± 0.19 | 5.867 ± 0.035 | 10.6 ± 2
